According to article PMC7708039, “Tethering-facilitated DNA ‘opening’ and complementary roles of β-hairpin motifs in the Rad4/XPC DNA damage sensor protein”:

Assays:
[1] = molecular target: T1, Rad4-Rad23 WT crosslinkable (<SC32>) (UniProt P14736;P32628 101-632;1-77+230-398, V131C;C132S;internal_change); test: fluorescence lifetime FRET; non-covalent, equimolar; EMSA: 5 mM BTP-HCl pH 6.8, 75 mM NaCl, 5 mM DTT, 5% glycerol, 0.74 mM CHAPS, 500 ug/ml BSA, room temperature 20 min, 5 nM labeled DNA, 1000 nM cold CH7_NX; conditions: protein: recombinant; tags: N-terminal His tag on Rad4 (fluorescence); copies: 1;1; label: tCo donor, tCnitro acceptor; 3-bp CCC/CCC mismatch
T1 sequence 1: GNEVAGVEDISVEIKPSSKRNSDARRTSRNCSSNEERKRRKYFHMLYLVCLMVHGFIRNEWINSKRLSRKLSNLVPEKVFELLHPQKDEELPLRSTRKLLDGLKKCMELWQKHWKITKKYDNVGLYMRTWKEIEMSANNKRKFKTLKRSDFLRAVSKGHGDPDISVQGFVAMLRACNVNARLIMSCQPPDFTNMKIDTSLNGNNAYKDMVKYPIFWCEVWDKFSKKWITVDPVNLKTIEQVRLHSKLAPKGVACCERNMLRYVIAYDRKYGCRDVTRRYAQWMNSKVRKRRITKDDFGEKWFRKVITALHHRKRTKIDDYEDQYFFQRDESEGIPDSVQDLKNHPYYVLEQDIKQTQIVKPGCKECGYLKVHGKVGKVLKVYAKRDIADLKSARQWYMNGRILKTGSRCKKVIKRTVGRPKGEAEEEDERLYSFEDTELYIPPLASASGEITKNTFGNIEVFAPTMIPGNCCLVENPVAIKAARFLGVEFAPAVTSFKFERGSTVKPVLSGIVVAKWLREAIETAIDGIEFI
T1 sequence 2: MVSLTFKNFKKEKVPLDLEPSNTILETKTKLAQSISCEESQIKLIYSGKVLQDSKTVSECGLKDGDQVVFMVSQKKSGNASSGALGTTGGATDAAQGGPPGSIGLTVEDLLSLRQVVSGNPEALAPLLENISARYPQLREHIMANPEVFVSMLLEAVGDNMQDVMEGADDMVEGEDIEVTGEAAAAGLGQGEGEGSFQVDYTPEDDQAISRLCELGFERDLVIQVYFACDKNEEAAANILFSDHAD

[2] = molecular target: T2, Rad4-Rad23 delta-beta-hairpin3 (<137>) (UniProt P14736;P32628 101-598+606-632;1-77+230-398, internal_change;internal_change); test: competitive EMSA; apparent Ks; 1000 nM cold CH7_NX competitor; EMSA: 5 mM BTP-HCl pH 6.8, 75 mM NaCl, 5 mM DTT, 5% glycerol, 0.74 mM CHAPS, 500 ug/ml BSA, room temperature 20 min, 5 nM labeled DNA, 1000 nM cold CH7_NX; conditions: protein: recombinant; tags: N-terminal His tag on Rad4; copies: 1;1; label: 32P; 3-bp CCC/CCC mismatch; 5' overhang 1 nt at both ends
T2 sequence 1: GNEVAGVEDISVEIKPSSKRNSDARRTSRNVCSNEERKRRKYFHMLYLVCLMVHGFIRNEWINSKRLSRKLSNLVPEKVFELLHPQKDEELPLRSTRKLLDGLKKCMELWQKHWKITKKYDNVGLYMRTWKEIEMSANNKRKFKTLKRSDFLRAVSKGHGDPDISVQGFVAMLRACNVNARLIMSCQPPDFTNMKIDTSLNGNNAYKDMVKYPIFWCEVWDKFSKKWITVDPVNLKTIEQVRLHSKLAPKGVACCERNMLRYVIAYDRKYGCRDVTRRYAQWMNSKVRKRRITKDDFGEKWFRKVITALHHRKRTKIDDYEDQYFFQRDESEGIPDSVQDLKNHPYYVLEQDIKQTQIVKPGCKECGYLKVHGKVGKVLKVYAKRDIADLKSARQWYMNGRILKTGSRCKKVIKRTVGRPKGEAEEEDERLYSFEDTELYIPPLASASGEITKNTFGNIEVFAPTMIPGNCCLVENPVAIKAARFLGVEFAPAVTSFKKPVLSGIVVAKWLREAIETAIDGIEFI
T2 sequence 2: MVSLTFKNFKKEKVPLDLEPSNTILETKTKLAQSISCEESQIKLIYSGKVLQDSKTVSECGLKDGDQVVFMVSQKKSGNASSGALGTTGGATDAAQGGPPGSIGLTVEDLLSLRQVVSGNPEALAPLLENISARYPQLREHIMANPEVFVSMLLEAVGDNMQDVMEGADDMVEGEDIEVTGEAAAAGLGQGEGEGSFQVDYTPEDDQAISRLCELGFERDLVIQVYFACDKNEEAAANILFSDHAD

[3] = molecular target: T3, Rad4-Rad23 WT (no thrombin cleavage) (UniProt P14736;P32628 101-632;1-77+230-398, internal_change); test: as above; conditions: protein: recombinant; tags: N-terminal His tag on Rad4; copies: 1;1; label: 32P; 3-bp CCC/CCC mismatch; 5' overhang 1 nt at both ends
T3 sequence 1: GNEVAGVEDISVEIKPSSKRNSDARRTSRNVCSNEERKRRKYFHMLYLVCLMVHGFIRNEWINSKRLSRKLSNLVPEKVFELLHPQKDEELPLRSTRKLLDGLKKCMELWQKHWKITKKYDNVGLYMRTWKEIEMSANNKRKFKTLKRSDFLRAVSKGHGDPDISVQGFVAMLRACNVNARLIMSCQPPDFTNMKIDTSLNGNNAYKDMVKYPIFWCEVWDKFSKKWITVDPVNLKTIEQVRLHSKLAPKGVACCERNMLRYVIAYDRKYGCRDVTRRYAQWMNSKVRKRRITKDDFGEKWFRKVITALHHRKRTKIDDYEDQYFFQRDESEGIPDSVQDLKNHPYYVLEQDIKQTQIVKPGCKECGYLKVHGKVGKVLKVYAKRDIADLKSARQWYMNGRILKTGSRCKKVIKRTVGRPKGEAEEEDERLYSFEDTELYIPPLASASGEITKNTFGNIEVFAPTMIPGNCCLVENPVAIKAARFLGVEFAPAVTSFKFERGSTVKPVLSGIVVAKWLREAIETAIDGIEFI
T3 sequence 2: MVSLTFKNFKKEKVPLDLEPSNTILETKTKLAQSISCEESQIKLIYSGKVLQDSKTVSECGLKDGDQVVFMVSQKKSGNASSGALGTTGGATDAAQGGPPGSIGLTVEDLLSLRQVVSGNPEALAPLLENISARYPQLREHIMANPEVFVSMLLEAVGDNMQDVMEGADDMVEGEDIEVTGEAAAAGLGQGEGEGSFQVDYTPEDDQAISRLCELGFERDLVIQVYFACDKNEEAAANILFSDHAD

[4] = molecular target: T4, Rad4-Rad23 delta-beta-hairpin2 (<130>) (UniProt P14736;P32628 101-514+528-632;1-77+230-398, internal_change;internal_change); test: as above; conditions: protein: recombinant; tags: N-terminal His tag on Rad4; copies: 1;1; label: 32P; 3-bp CCC/CCC mismatch; 5' overhang 1 nt at both ends
T4 sequence 1: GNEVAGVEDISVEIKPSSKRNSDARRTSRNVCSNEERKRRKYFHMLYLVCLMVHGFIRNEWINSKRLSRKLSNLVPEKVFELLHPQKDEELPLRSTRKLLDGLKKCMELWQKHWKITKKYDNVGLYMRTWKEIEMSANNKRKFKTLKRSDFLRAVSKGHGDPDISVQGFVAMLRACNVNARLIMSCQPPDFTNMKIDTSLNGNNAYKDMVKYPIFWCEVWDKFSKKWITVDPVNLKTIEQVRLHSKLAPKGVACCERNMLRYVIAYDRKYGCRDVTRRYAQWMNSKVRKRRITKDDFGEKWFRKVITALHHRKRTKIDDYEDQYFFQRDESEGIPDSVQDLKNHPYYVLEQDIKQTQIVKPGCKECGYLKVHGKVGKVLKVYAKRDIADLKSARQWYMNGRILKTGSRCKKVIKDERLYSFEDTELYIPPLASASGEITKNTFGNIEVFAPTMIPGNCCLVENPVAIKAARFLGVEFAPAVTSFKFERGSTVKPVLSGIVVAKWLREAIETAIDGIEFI
T4 sequence 2: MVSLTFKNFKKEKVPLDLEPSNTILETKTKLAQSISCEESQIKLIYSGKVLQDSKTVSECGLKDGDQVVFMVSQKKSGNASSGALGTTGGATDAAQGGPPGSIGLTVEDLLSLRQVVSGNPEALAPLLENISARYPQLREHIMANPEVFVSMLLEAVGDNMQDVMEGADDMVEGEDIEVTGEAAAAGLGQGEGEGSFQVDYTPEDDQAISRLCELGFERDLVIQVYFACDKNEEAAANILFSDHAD

[5] = molecular target: T2, Rad4-Rad23 delta-beta-hairpin3 (<137>); test: competitive EMSA; apparent Kns; 1000 nM cold CH7_NX competitor; EMSA: 5 mM BTP-HCl pH 6.8, 75 mM NaCl, 5 mM DTT, 5% glycerol, 0.74 mM CHAPS, 500 ug/ml BSA, room temperature 20 min, 5 nM labeled DNA, 1000 nM cold CH7_NX; conditions: protein: recombinant; tags: N-terminal His tag on Rad4; copies: 1;1; label: 32P; fully matched; 5' overhang 1 nt at both ends
[6] = molecular target: T3, Rad4-Rad23 WT (no thrombin cleavage); test: as above; conditions: protein: recombinant; tags: N-terminal His tag on Rad4; copies: 1;1; label: 32P; fully matched; 5' overhang 1 nt at both ends
[7] = molecular target: T4, Rad4-Rad23 delta-beta-hairpin2 (<130>); test: as above; conditions: protein: recombinant; tags: N-terminal His tag on Rad4; copies: 1;1; label: 32P; fully matched; 5' overhang 1 nt at both ends

B1: CCC/CCC_G*_DA (dsDNA)
DNA 1: TTGACTCGACATCCCCCGGTACAA
DNA 2: ATTGTACCCCCGGATGTCGAGTCA
modifications: disulfide-modified guanine G* in top strand
B1: binds [1].

B2: CCC/CCC mismatched (CH10_NX) (dsDNA)
DNA 1: TTGACTCGACATCCCCCGCTACAA
DNA 2: ATTGTAGCCCCGGATGTCGAGTCA
In the case of B2, the Kd [2] is reported as about 200 nM, the Kd [3] is reported as about 60 nM and the Kd [4] is reported as about 260 nM.

B3: CCC/GGG matched (dsDNA)
DNA 1: TTGACTCGACATCCCCCGCTACAA
DNA 2: ATTGTAGCGGGGGATGTCGAGTCA
B3 showed a Kd [5] of about 510 nM, a Kd [6] of about 370 nM and a Kd [7] of about 700 nM.
